Measurements as given in publication PMC8955265 (2022).
Where no end group is shown, it is not given here. [ ]: non-standard residue; d: D form. pT = C[C@@H](OP(=O)(O)O)[C@H](N)C(=O)O; pS = N[C@@H](COP(=O)(O)O)C(=O)O; CF = carboxyfluorescein

Key:
[1] = target: T1, Skp1-FBXW7 complex (human, UniProt P63208 1-149; Q969H0 263-707); experiment: FP; competition, unlabeled peptide
[2] = target: T1, Skp1-FBXW7 complex; experiment: FP; direct titration

T1 sequence (P63208 1-149, chain 1 of 2): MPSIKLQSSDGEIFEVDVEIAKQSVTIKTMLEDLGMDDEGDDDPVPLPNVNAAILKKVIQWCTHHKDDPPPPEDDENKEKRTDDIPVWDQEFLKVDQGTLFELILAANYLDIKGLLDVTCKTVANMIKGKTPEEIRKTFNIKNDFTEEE
T1 sequence (Q969H0 263-707, chain 2 of 2): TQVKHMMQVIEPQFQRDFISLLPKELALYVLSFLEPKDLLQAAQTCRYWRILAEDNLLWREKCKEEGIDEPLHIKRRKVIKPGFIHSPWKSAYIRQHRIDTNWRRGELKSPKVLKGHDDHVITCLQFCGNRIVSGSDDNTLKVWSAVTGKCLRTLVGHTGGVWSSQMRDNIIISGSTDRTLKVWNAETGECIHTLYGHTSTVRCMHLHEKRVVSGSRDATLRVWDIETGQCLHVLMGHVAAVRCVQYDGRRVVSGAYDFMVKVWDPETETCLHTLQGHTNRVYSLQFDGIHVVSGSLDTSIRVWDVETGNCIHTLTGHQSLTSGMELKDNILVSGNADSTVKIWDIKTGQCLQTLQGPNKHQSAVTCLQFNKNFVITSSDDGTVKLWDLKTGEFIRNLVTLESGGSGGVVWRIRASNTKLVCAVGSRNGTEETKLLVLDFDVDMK

| Binder | Kd [1] [nM] | Kd [2] [nM] |
| --- | --- | --- |
| PSGLL[pT]PPQ[pS]GKKQ (also: N-terminal carboxyfluorescein on the labelled probe form) [CCNE] | 15.9 | – |
| {CF}-PSGLL[pT]PPQ[pS]GKKQ [carboxyfluorescein (CF) labeled CCNE peptide (CF-PSGLLpTPPQpSGKKQ)] | – | 2.8 |
